System: K4 kissing-loop RNA reporter
Assay: apparent KD of K4 kissing-loop reporter; higher = weaker reporter binding
Settings: Eterna round: R107
Description: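 RNA-MaP round R107: designed RNA switches with theophylline, tryptophan, arginine or FMN aptamers are transcribed on-chip within common flanks. They are titrated with a labelled K4 kissing-loop RNA reporter in RNA-MaP buffer (100 mM Tris pH 7.5, 80 mM KCl, 4 mM MgCl2), without ligand or with the indicated ligand. Median apparent KD per design.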

[1] = input ligand: theophylline 20 uM
[2] = input ligand: tryptophan 2.4 mM
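Further: bound reporter read as fluorescence of individual clusters on recovered sequencing chips by microscopy, with normalized cluster intensities fitted with a binding model.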

UGAUAGGACAGAAGGAGCGGUAGUGAUGUUACCAAAAGGCUAAGGUGUCAAAAGACACCCUACCAGGUAGGUCGCUGUCCUAUCU
apparent KD of K4 kissing-loop reporter (input ligand: FMN 200 uM): 131 nM | apparent KD of K4 kissing-loop reporter (input ligand: arginine 13.2 mM): 131 nM | apparent KD of K4 kissing-loop reporter (input ligand: none): 137 nM | apparent KD of K4 kissing-loop reporter [1]: 121 nM | apparent KD of K4 kissing-loop reporter [2]: 103 nM

GCUGAGGAGUGAUGUUCCAAGUGAUGUUAACGAGGACCGGUACGGCCGCCACUCGAUACGGCCGGACCGUAAGAUAAACUACAGC [Same State - Tryptophan A (Freestyle 7)]
apparent KD of K4 kissing-loop reporter (input ligand: FMN 200 uM): 316 nM | apparent KD of K4 kissing-loop reporter (input ligand: arginine 13.2 mM): 281 nM | apparent KD of K4 kissing-loop reporter (input ligand: none): 288 nM | apparent KD of K4 kissing-loop reporter [1]: 409 nM | apparent KD of K4 kissing-loop reporter [2]: 315 nM

AUAUAAGUCGGAGGAUAUCCAGUGAUGUUAUGUUGUGAUGUUUAGUGAUGUUAGGCAUCAGUGAAGGGAGAAGGCCGUAAGUGAU [APPLE]
apparent KD of K4 kissing-loop reporter (input ligand: FMN 200 uM): 68.6 nM | apparent KD of K4 kissing-loop reporter (input ligand: arginine 13.2 mM): 53.3 nM | apparent KD of K4 kissing-loop reporter (input ligand: none): 91.1 nM | apparent KD of K4 kissing-loop reporter [1]: 89.2 nM | apparent KD of K4 kissing-loop reporter [2]: 78.9 nM

AAAUUUAAUAUAUUUAAUUAAUUAUGUGAUACCAGACAUUAAUAAGUCCCUUGGCAGCACAAUGCAGUGAUGUUGCUUAUAAUAA [JR_SSTheophyA_Sub010]
apparent KD of K4 kissing-loop reporter (input ligand: FMN 200 uM): 85.7 nM | apparent KD of K4 kissing-loop reporter (input ligand: arginine 13.2 mM): 117 nM | apparent KD of K4 kissing-loop reporter (input ligand: none): 86.9 nM | apparent KD of K4 kissing-loop reporter [1]: 138 nM | apparent KD of K4 kissing-loop reporter [2]: 70.3 nM

AUUAAUUUCAGAGGAUAUCGUAAUUUUAUUUAAUUUAUUCAUUUGUGCAGUGAUGUUGCUAAUAUUCGAGAAGGCUGAUUUAUAA [whbob_Ex_FMNB__2th223]
apparent KD of K4 kissing-loop reporter (input ligand: FMN 200 uM): 142 nM | apparent KD of K4 kissing-loop reporter (input ligand: arginine 13.2 mM): 159 nM | apparent KD of K4 kissing-loop reporter (input ligand: none): 70.8 nM | apparent KD of K4 kissing-loop reporter [1]: 171 nM | apparent KD of K4 kissing-loop reporter [2]: 65 nM

AAGUCAUAUAGAAGGAGCGUGUUUUAUAAUUUAUUUUCAUGAUCGAGUGAUGUUCGAUAUACACAGGUAGGUCGCUGUAUAAUAA [hbob_SS_Arginine_B_2t140]
apparent KD of K4 kissing-loop reporter (input ligand: FMN 200 uM): 114 nM | apparent KD of K4 kissing-loop reporter (input ligand: arginine 13.2 mM): 144 nM | apparent KD of K4 kissing-loop reporter (input ligand: none): 129 nM | apparent KD of K4 kissing-loop reporter [1]: 133 nM | apparent KD of K4 kissing-loop reporter [2]: 101 nM

AGAGUUAUGCGAGGAUAUGCAGUUAGUACUCAAAGAGUACUAACGCAGAGUGAUGUUCUGUGAAAAGCAGAAGGUGCAUAACUCA [Omei KL FMN B SS B v6]
apparent KD of K4 kissing-loop reporter (input ligand: FMN 200 uM): 155 nM | apparent KD of K4 kissing-loop reporter (input ligand: arginine 13.2 mM): 650 nM | apparent KD of K4 kissing-loop reporter (input ligand: none): 693 nM | apparent KD of K4 kissing-loop reporter [1]: 597 nM | apparent KD of K4 kissing-loop reporter [2]: 669 nM

AAAAUAAAUCAGUGAUGUUGGUAUCCGGAUACCAGCGAUAAUCAUCGCCCUUGGCAGCCGCGGACGUACAAAAUAAGUACGUCCU [MatMod 15 - Jieux - Same State - Theophylline A]
apparent KD of K4 kissing-loop reporter (input ligand: FMN 200 uM): 282 nM | apparent KD of K4 kissing-loop reporter (input ligand: arginine 13.2 mM): 89.2 nM | apparent KD of K4 kissing-loop reporter (input ligand: none): 218 nM | apparent KD of K4 kissing-loop reporter [1]: 240 nM | apparent KD of K4 kissing-loop reporter [2]: 131 nM

UGUACCGAGUCAGGAUAUGGCGUCGAAAGACGAAUGCUAGUGAUGUUAGGGAUCUGCGAAAGCAGUCUAGAAGGGACUUGGUACU [FmnBS 26 G36+U68]
apparent KD of K4 kissing-loop reporter (input ligand: FMN 200 uM): 359 nM | apparent KD of K4 kissing-loop reporter (input ligand: arginine 13.2 mM): 361 nM | apparent KD of K4 kissing-loop reporter (input ligand: none): 471 nM | apparent KD of K4 kissing-loop reporter [1]: 483 nM | apparent KD of K4 kissing-loop reporter [2]: 525 nM

AGUCCACUCUAAAGAGUGGACCUAAGGGAUACCAGUGAUGUUGGUCACCCUUGGCAGCCCUCUGUCAUCGAUAAAGAUGGCAGAA
apparent KD of K4 kissing-loop reporter (input ligand: FMN 200 uM): 142 nM | apparent KD of K4 kissing-loop reporter (input ligand: arginine 13.2 mM): 110 nM | apparent KD of K4 kissing-loop reporter (input ligand: none): 114 nM | apparent KD of K4 kissing-loop reporter [1]: 112 nM | apparent KD of K4 kissing-loop reporter [2]: 108 nM

UAAUUUAUGUCUUUAAUUUUAUUAUCAGAUACCAGUGAUUUAUGACACCCUUGGCAGCUGUAUUGAGUGAUGUUCUUAUAUUAAA [JR_Nu_ExcTheophyA_Sub023]
apparent KD of K4 kissing-loop reporter (input ligand: FMN 200 uM): 111 nM | apparent KD of K4 kissing-loop reporter (input ligand: arginine 13.2 mM): 111 nM | apparent KD of K4 kissing-loop reporter (input ligand: none): 118 nM | apparent KD of K4 kissing-loop reporter [1]: 190 nM | apparent KD of K4 kissing-loop reporter [2]: 72.5 nM

AACCACUCGUUACAUCACUAUCGAGUGGAACGAGGACCGGUACGGCCGCCACUCGAUAACUUGCAGUGAUGUUGCAAGUAAGAAU [(T)''-(K)'-(T)'-(T1)-(T2)-(K1)-(K2)_Design9]
apparent KD of K4 kissing-loop reporter (input ligand: FMN 200 uM): 542 nM | apparent KD of K4 kissing-loop reporter (input ligand: arginine 13.2 mM): 343 nM | apparent KD of K4 kissing-loop reporter (input ligand: none): 472 nM | apparent KD of K4 kissing-loop reporter [1]: 381 nM | apparent KD of K4 kissing-loop reporter [2]: 289 nM

UAGUUGCCGGUUUGUAGGCUUCGGCAGUGGGAGGAUAUGUUGACCGACAGAAGGCCCAGUGAUGUUGGGCGAUUGGCGGUGAGAU [Antebear]
apparent KD of K4 kissing-loop reporter (input ligand: FMN 200 uM): 50 nM | apparent KD of K4 kissing-loop reporter (input ligand: arginine 13.2 mM): 78.3 nM | apparent KD of K4 kissing-loop reporter (input ligand: none): 145 nM | apparent KD of K4 kissing-loop reporter [2]: 123 nM

GUAGACAGACUGCGGGCCUAGUCUACAGACUAGGAUAUCAGGAAACUGAGAAGGAGUCUAGUUGCAGUGAUGUUGCAAGAAUAAU [KL-SSFMN-A26]
apparent KD of K4 kissing-loop reporter (input ligand: FMN 200 uM): 99.1 nM | apparent KD of K4 kissing-loop reporter (input ligand: arginine 13.2 mM): 115 nM | apparent KD of K4 kissing-loop reporter (input ligand: none): 93.6 nM | apparent KD of K4 kissing-loop reporter [1]: 114 nM | apparent KD of K4 kissing-loop reporter [2]: 78.4 nM

CAUUACGGUCGCUUACCAAACCACUACUUCCGAGGACCGGUACGGCCGCCACUCGCCAGUGAUGUUGGCUCGGGCGGCCGAUUAU [Orrebeante]
apparent KD of K4 kissing-loop reporter (input ligand: FMN 200 uM): 117 nM | apparent KD of K4 kissing-loop reporter (input ligand: arginine 13.2 mM): 103 nM | apparent KD of K4 kissing-loop reporter (input ligand: none): 109 nM | apparent KD of K4 kissing-loop reporter [1]: 97.9 nM | apparent KD of K4 kissing-loop reporter [2]: 106 nM

AGGUCACUACUACAGUGAUGUUGUGGAGAGCAGGAUAUGCAGAAAUGCAGAAGGGCUCGCUCUCAGUGACCGAAUGAAACAUUCA [Omei KL FMN A SS A v8]
apparent KD of K4 kissing-loop reporter (input ligand: FMN 200 uM): 663 nM | apparent KD of K4 kissing-loop reporter (input ligand: arginine 13.2 mM): 724 nM | apparent KD of K4 kissing-loop reporter (input ligand: none): 712 nM | apparent KD of K4 kissing-loop reporter [1]: 566 nM | apparent KD of K4 kissing-loop reporter [2]: 838 nM

AUUUUUUUGUCAGGAUAUUAGUAUGGUUUUGGUUUGUUAGUGAUGUUGAUAUUUUGUUUAUGUAUUUAAGAAGGGAUUUAGCGGU [gyhhgumullin]
apparent KD of K4 kissing-loop reporter (input ligand: FMN 200 uM): 404 nM | apparent KD of K4 kissing-loop reporter (input ligand: arginine 13.2 mM): 290 nM | apparent KD of K4 kissing-loop reporter (input ligand: none): 356 nM | apparent KD of K4 kissing-loop reporter [1]: 447 nM | apparent KD of K4 kissing-loop reporter [2]: 320 nM

CGUGAGUGCCGUCAGUCAUCGGUCCAUGCACGAGGACCGGUACGGCCGCCACUCGAGCGUGGCAGUGAUGUUGCCAGCGCACUAA [KL-XTryp-A12]
apparent KD of K4 kissing-loop reporter (input ligand: FMN 200 uM): 117 nM | apparent KD of K4 kissing-loop reporter (input ligand: arginine 13.2 mM): 98.7 nM | apparent KD of K4 kissing-loop reporter (input ligand: none): 103 nM | apparent KD of K4 kissing-loop reporter [1]: 112 nM | apparent KD of K4 kissing-loop reporter [2]: 89.4 nM

AUAUCGGUUGAGAGUGAUGUUCCUUGUGUUCGAGGACCGGUACGGCCGCCACUCGGGUAGAAAAUAAAAGAUGUGUUUGAUUUUU [BDazzled - #14 SS Tryptophan A]
apparent KD of K4 kissing-loop reporter (input ligand: FMN 200 uM): 243 nM | apparent KD of K4 kissing-loop reporter (input ligand: arginine 13.2 mM): 91.5 nM | apparent KD of K4 kissing-loop reporter (input ligand: none): 203 nM | apparent KD of K4 kissing-loop reporter [1]: 402 nM | apparent KD of K4 kissing-loop reporter [2]: 221 nM

GAAAUCACGGAUGAUACCAGCCAGAACUCUCACAGUGAUGUUGUGCUUAAAUGAUUAGGAGGCCCUUGGCAGCAUACGCUAAUUU [theeternabot_sameState_KL_Theo_B_36]
apparent KD of K4 kissing-loop reporter (input ligand: FMN 200 uM): 324 nM | apparent KD of K4 kissing-loop reporter (input ligand: arginine 13.2 mM): 267 nM | apparent KD of K4 kissing-loop reporter (input ligand: none): 313 nM | apparent KD of K4 kissing-loop reporter [1]: 305 nM | apparent KD of K4 kissing-loop reporter [2]: 226 nM

CGCAGUGAUGUUGCGAAUAUAAUAACGGAAGGAGCGCGUGAAAACGCAGGUAGGUCGCCGUUUGGUAUGAUGGAAACAUCGUACC [Arginine A K4 11]
apparent KD of K4 kissing-loop reporter (input ligand: FMN 200 uM): 135 nM | apparent KD of K4 kissing-loop reporter (input ligand: arginine 13.2 mM): 138 nM | apparent KD of K4 kissing-loop reporter (input ligand: none): 132 nM | apparent KD of K4 kissing-loop reporter [1]: 106 nM | apparent KD of K4 kissing-loop reporter [2]: 123 nM

AACCACUCGUUACAUCACUAUCGAGUGGAACGAGGACCGGUACGGCCGCCACUCGGUAUCUUGCAGUGAUGUUGCAAGAAAGAAU [KL-SSTryp-A #dotplot2 strengthened]
apparent KD of K4 kissing-loop reporter (input ligand: FMN 200 uM): 212 nM | apparent KD of K4 kissing-loop reporter (input ligand: arginine 13.2 mM): 199 nM | apparent KD of K4 kissing-loop reporter (input ligand: none): 256 nM | apparent KD of K4 kissing-loop reporter [1]: 164 nM | apparent KD of K4 kissing-loop reporter [2]: 163 nM
